Here are results for one substance from patent US20040208887A1.

Assay [1] deals with recombinant E1/E2 heterodimer protein (genotype 1a) (hepatitis C virus genotype 1a) (UniProt P26664). The assay is described as follows: ELISA, E1/E2 heterodimer coated; control Fab.
A further assay concerns the target BSA (Sigma) (UniProt P02769). The experiment in a line: ELISA, BSA coated as negative control antigen; control Fab. On the technique in general: In an ELISA, binding on a coated surface is turned into a signal by an enzyme label.
In assay [2] the target is recombinant soluble HCV E1 protein (hepatitis C virus). The experiment in a line: ELISA, recombinant E1 captured on GNA lectin; control Fab.

Sequence of BSA (Sigma) (P02769 25-607 limits assumed): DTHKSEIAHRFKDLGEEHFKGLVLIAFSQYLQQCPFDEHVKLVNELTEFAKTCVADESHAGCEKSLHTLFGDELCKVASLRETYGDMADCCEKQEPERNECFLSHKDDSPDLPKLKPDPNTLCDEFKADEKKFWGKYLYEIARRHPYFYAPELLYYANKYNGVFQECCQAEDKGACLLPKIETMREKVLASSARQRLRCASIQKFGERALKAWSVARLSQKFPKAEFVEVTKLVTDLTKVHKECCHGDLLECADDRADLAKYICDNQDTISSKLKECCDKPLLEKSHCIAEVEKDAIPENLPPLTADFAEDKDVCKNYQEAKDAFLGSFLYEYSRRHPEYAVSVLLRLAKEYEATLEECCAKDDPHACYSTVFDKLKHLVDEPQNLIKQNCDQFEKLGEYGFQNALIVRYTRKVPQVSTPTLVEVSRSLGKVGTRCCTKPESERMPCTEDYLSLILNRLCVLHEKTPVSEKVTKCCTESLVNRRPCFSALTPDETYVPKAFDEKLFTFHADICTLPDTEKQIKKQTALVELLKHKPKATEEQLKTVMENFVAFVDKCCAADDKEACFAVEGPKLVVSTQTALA
Sequence of recombinant E1/E2 heterodimer protein (genotype 1a) (hepatitis C virus genotype 1a) (P26664 192-383 limits assumed, chain 1 of 2): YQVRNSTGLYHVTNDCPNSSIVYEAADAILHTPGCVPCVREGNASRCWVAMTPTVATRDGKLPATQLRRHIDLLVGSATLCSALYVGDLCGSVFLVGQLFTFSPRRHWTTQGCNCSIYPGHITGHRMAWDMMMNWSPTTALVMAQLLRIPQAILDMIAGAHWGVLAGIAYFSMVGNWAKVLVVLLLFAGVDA
Sequence of recombinant E1/E2 heterodimer protein (genotype 1a) (hepatitis C virus genotype 1a) (P26664 384-746 limits assumed, chain 2 of 2): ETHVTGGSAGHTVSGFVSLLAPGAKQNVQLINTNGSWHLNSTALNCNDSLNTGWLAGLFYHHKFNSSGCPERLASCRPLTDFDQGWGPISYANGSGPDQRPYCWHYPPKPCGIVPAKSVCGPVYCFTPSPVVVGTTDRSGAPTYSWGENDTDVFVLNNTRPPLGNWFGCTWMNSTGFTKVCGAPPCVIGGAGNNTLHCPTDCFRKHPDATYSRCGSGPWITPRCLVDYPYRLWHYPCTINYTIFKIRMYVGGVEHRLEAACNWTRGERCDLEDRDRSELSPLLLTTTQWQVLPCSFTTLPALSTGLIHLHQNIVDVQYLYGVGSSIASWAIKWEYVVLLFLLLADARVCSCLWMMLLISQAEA

As for non-specific Fab, the OD405 nm is 0.11 OD405 nm in assay [1], 0.14 OD405 nm with BSA (Sigma) and 0.2 OD405 nm in assay [2].
